Measured values from publication PMC9482650, “Quantitative fragmentomics allow affinity mapping of interactomes” (Nature Communications, 2022).

Legend:
Assay in all cases: holdup assay
Parameters in all cases: key: below the threshold = too weak to quantify, mostly under pKd 3.1 to 4
Conditions in all cases: plain residues with an end cap or a label only (N-terminal biotin on a linker: ado-ado)
[1] = target: T1, DFNB31_1, Q9P202
T1 sequence (Q9P202 135-233, limits assumed, looked up): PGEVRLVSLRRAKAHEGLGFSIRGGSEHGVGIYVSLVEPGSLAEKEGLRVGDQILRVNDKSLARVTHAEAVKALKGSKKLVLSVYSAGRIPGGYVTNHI

[2] = target: DLG1_2, Q12959
[3] = target: DLG4_2, P78352
[4] = target: T2, FRMPD1, Q5SYB0
T2 sequence (Q5SYB0 52-145, limits assumed, looked up): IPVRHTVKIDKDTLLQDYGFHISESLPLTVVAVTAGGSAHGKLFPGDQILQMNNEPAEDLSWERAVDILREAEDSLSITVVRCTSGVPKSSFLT

[5] = target: FRMPD2_2, Q68DX3
[6] = target: FRMPD3, Q5JV73
[7] = target: HTRA1, Q92743
[8] = target: Inadl_3, Q8NI35
[9] = target: T3, LIN7A, O14910
T3 sequence (O14910 103-200, limits assumed, looked up): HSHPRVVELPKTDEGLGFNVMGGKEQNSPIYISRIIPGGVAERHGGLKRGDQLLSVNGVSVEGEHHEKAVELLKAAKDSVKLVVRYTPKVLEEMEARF

[10] = target: T4, LIN7B, Q9HAP6
T4 sequence (Q9HAP6 88-185, limits assumed, looked up): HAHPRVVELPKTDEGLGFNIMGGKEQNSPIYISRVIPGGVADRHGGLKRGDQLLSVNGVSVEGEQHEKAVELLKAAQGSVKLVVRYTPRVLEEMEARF

[11] = target: LNX1_2, Q8TBB1
[12] = target: T5, LNX2_2, Q8N448
T5 sequence (Q8N448 334-432, limits assumed, looked up): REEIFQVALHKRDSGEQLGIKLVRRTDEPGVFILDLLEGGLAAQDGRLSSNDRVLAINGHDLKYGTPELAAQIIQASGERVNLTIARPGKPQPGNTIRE

[13] = target: MAST2, Q6P0Q8
[14] = target: T6, MPDZ_10, O75970
T6 sequence (O75970 1624-1722, limits assumed, looked up): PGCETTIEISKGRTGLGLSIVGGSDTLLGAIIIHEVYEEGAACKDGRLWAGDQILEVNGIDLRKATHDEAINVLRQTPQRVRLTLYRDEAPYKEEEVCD

[15] = target: T7, NHERF3_4, Q5T2W1
T7 sequence (Q5T2W1 373-468, limits assumed, looked up): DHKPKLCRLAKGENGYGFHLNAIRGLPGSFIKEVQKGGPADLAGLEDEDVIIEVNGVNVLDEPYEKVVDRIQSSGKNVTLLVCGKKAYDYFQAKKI

[16] = target: T8, PDZD7_3, Q9H5P4
T8 sequence (Q9H5P4 857-944, limits assumed, looked up): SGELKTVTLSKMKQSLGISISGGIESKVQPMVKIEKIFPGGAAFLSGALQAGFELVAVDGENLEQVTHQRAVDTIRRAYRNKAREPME

[17] = target: T9, PDZRN3_1, Q9UPQ7
T9 sequence (Q9UPQ7 244-349, limits assumed, looked up): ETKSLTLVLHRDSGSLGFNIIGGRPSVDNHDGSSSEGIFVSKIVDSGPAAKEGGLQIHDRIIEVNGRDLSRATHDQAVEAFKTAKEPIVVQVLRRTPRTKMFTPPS

[18] = target: PTPN3, P26045
[19] = target: T10, RAPGEF6, Q8TEU7
T10 sequence (Q8TEU7 525-625, limits assumed, looked up): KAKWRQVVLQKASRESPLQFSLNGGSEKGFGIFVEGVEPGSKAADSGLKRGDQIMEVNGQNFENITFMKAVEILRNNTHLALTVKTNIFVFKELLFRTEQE

[20] = target: SCRIB_2, Q14160
[21] = target: T11, SIPA1L2, Q9P2F8
T11 sequence (Q9P2F8 945-1036, limits assumed, looked up): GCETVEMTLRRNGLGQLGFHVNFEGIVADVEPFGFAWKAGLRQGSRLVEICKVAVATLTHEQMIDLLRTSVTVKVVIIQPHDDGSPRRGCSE

[22] = target: SNX27, Q96L92
[23] = target: T12, SYNJ2BP, P57105
T12 sequence (P57105 8-110, limits assumed, looked up): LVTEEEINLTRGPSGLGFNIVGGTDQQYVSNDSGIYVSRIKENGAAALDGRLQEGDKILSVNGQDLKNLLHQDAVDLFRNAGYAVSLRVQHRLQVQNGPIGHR

[24] = target: T13, TIAM2, Q8IVF5
T13 sequence (Q8IVF5 885-986, limits assumed, looked up): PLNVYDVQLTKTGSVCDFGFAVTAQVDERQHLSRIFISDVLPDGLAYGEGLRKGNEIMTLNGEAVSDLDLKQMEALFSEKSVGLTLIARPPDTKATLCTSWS

Measured: pKd

Sequence of SCRIB_2, Q14160 (Q14160 857-960): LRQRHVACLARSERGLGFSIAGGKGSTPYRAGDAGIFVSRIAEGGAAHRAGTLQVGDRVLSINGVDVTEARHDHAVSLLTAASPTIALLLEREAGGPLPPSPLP
Sequence of DLG1_2, Q12959 (Q12959 314-412): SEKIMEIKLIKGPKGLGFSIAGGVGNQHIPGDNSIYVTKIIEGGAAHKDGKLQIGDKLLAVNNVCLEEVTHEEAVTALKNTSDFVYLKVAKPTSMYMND
Sequence of MAST2, Q6P0Q8 (Q6P0Q8 1099-1202): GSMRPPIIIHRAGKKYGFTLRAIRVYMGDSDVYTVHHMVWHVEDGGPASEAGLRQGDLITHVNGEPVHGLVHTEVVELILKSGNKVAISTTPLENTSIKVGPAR
Sequence of FRMPD2_2, Q68DX3 (Q68DX3 944-1038): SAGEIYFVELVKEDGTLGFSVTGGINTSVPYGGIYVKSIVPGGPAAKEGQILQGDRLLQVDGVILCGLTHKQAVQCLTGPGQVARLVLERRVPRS
Sequence of FRMPD3, Q5JV73 (Q5JV73 12-100): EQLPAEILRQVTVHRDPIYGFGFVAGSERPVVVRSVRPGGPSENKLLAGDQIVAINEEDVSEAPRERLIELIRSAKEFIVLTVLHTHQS
Sequence of DLG4_2, P78352 (P78352 155-259): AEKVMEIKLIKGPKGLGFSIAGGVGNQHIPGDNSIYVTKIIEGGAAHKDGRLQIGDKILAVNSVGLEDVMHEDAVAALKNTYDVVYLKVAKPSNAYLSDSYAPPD
Sequence of PTPN3, P26045 (P26045 505-587): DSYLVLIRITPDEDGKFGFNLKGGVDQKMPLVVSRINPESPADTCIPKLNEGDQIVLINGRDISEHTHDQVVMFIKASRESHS
Sequence of HTRA1, Q92743 (Q92743 360-477): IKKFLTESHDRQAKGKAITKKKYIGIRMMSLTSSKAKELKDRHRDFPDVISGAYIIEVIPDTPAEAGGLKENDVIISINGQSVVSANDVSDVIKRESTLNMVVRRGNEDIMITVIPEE
Sequence of Inadl_3, Q8NI35 (Q8NI35 359-469): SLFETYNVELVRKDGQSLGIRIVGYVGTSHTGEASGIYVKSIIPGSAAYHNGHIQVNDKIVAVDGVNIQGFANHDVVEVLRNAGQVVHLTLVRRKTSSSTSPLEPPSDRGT
Sequence of LNX1_2, Q8TBB1 (Q8TBB1 371-470): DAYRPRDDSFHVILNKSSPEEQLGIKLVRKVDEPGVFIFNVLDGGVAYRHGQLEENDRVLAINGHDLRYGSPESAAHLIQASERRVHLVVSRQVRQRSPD

ADRDHASDQL [CTBP1, Q13363]
below the threshold: all assays above
